The values below come from patent US20230257440A1 (published 2023).

The target of the assay is T1, RAS G12V (KRAS, HRAS or NRAS) peptide on HLA-DRA*01:01 / HLA-DRB1*01:01 (human).
T1 peptide: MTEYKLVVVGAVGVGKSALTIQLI
Put plainly: cytokine release. As to the method:
FIG. 2 is a graph showing IFN-γ secretion (spots/3e4 cells) measured by ELISPOT assay following co-culture of effector cells with target cells. […] Target cells were […] or HEK 293 cells independently transfected with one of the HLA Class II heterodimers shown. The target cells were loaded with the G12V 24-mer peptide and were cultured in the presence or absence of an antibody which blocked the respective HLA Class II molecule previously transfected. Target cells cultured with DMSO served as a negative control.
Reactivity was tested by IFNγ-secretion using ELISpot assay. […] This reactivity was blocked by an antibody which recognized the DRA*01:01/DRB1*01:01 heterodimer.

B1: 4304 TCR1 (TCR, V domains shown)
Valpha: AQRVTQPEKLLSVFKGAPVELKCNYSYSGSPELFWYVQYSRQRLQLLLRHISRESIKGFTADLNKGETSFHLKKPFAQEEDSAMYYCALLQGAQKLVFGQGTRLTINP
Vbeta: SAVISQKPSRDICQRGTSLTIQCQVDSQVTMMFWYRQQPGQSLTLIATANQGSEATYESGFVIDKFPISRPNLTFSTLTVSNMSPEDSSIYLCSVESGQDYGYTFGSGTRLTVV
With B1, the binding result is given as “recognises”.
